Data on two molecules can be found in paper PMC7504393 (International Journal of Molecular Sciences, 2020).

Assay [1] has as its target T1, recombinant human YKL-40 protein (hYKL-40) (Homo sapiens, UniProt P36222).
T1 construct: human YKL-40 (chitinase-3-like 1, CHI3L1), recombinant protein from Sino Biological; also called chitinase-3-like 1; CHI3L1; source: bought: Sino Biological
Put plainly: ELISA; hYKL-40 coated at 2 ug/mL (30 uL per well, overnight, 4 °C); serially diluted Fabs, 1 h at 37 °C; detection with HRP-conjugated StrepMAB-Classic; apparent affinity (EC50). As to conditions: both partners purified. (In general: An ELISA detects its analyte on a solid surface through an enzyme-linked reagent.)

In assay [2] the target is T2, recombinant mouse YKL-40 (Mus musculus, UniProt Q61362).
T2 construct: mouse YKL-40 (chitinase-3-like protein 1), recombinant
Put plainly: western blot; H1 (IgG) as the probing antibody on recombinant human and mouse YKL-40 (Figure S5). Conditions: both partners purified. On the technique in general: In western blotting, separated proteins are transferred to a membrane and probed.

Assay [3] addresses T1, recombinant human YKL-40 protein …. Nature of the assay: BLI; Octet QK384; hYKL-40 amine-coupled to AR2G tips (15 ug/mL, 10 mM sodium acetate pH 5.0); H1 (IgG) 50 nM~0 nM in 2-fold dilutions in PBS with 0.09% Tween 20; 1:1 binding model; apparent KD. Conditions: both partners purified. A general note: BLI is a label-free optical method that tracks binding on a fibre tip over time.

The target of assay [4] is T3, native YKL-40 from murine cells (Mus musculus, UniProt Q61362).
T3 construct: mouse YKL-40 (chitinase-3-like protein 1), endogenous in murine cells; source: endogenous, murine cell lysates (including mouse lung cells)
Put plainly: western blot; H1 (IgG) as the probing antibody on lysates of human and murine cells (Figure S5). As to conditions: one partner purified.

In assay [5] the target is T1, recombinant human YKL-40 protein …. Put plainly: ELISA; soluble ELISA of serially diluted IgGs on immobilized hYKL-40 surfaces; apparent affinity (EC50). Conditions: both partners purified.

T1 sequence (P36222 22-383): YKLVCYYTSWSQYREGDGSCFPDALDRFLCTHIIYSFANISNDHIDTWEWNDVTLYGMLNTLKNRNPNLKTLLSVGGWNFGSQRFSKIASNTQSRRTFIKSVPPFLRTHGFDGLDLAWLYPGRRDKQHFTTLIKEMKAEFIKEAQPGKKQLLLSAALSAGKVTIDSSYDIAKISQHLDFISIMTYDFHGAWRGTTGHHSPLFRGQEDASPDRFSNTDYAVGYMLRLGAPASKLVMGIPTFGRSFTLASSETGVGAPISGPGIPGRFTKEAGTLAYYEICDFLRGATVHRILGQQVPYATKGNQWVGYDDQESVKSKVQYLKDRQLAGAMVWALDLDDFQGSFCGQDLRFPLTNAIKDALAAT
T3 sequence (Q61362 30-389): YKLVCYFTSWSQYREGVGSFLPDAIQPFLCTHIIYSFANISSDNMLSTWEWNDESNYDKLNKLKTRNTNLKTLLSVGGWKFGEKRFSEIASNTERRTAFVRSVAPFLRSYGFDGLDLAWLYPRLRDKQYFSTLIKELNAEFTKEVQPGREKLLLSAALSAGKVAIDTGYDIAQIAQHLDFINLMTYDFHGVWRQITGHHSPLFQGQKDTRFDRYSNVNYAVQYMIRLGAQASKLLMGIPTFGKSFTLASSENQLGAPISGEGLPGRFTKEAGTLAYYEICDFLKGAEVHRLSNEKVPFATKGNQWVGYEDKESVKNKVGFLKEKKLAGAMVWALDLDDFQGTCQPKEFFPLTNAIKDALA
T2 sequence (Q61362 30-389): as above

B1: H1 (Fab), human anti-hYKL-40 Fab (Fab, V domains shown)
VH: EVQLVESGGGLVQPGGSLRLSCAASGFTFSNYAMSWVRQAPGKGLEWVSGISGSGGTTYYADSVKGRFTISRDNSKNTLYLQMNSLRAEDTAVYYCAGVGTFDVWGQGTLVTVSS
VL: DIQMTQSPSSLSASVGDRVTITCRASQTISSWLNWYQQKPGKAPKLLIYAASRLQSGVPSRFSGSGSGTDFTLTISSLQPEDFATYYCQQSYSTPLTFGQGTKVEIK
notes: heavy chain (VH-CH1) of the H1 Fab, from the synthetic library KFab-I (human VH3 framework, randomised CDRs); light chain (VL-CL) of the H1 Fab, from the synthetic library KFab-I (human Vk1 framework, randomised CDRs); it is written on the heavy chain as a surmise; Expression vector pKFAB (in-house); source: E. coli Top10F', periplasmic extract, purified (Strep-Tactin XT)
For B1, in assay [1], the EC50 is 2.3 nM.

B2: H1 (IgG), human anti-hYKL-40 IgG (antibody, V domains shown)
VH: EVQLVESGGGLVQPGGSLRLSCAASGFTFSNYAMSWVRQAPGKGLEWVSGISGSGGTTYYADSVKGRFTISRDNSKNTLYLQMNSLRAEDTAVYYCAGVGTFDVWGQGTLVTVSS
VL: DIQMTQSPSSLSASVGDRVTITCRASQTISSWLNWYQQKPGKAPKLLIYAASRLQSGVPSRFSGSGSGTDFTLTISSLQPEDFATYYCQQSYSTPLTFGQGTKVEIK
notes: VH of H1, as in the heavy chain of m2 (PDB 7CJ2); human VH3 framework; human IgG1 heavy-chain constant region, from the heavy-chain vector (pOptiVEC) used for Herceptin expression as IgG1 backbone; VL-CL (Vk1, Ck1) of H1, as the light chain of m2 (PDB 7CJ2); IgG1, kappa; VL and CL were amplified and joined by overlap extension PCR; VH was cloned into the Herceptin IgG1 backbone; also called H1 …
B2: the binding result in assay [2] and in assay [4] was “binds” in each case. For the same molecule, the Kd in assay [3] was 0.05 nM. The EC50 in assay [5] stood at 0.5 nM.

By EC50 is commonly meant the concentration giving half of the maximal effect.
